Measurements from the domain aggregation screens of Martell et al. (2025).

Experiment: soluble fraction after stress (log2 fold change); higher = more stays soluble; pooled small domains, quantitative proteomics
Conditions: stress: 75 degC
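Further: 20 min heating vs room temperature control held 20 min.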

Point of comparison: “HMSSGSLLTEREIEILAEMAKGLTNKAIGEKLFISVATVKTHILNIYRKLEVSSRVTAVNKAKQMRL”, “soluble fraction (log2)” value -2.43. Against it:
- HMSRVFSPSELEIRHAQDVFQALEEAKRQGKGAVSLNGKMIDAPIVARAKLVLEAAAAIYGED — higher, -0.379
- HMSRVHHGFNISIARNRKGLKQAALADMLGISQQRLSQLENQRVVKDEILEKVSEATGVSVEDLKTIE — higher, -0.08
- HMSRVSVDGEEVNFEGEIPDDPSRIYELLMGALSEQSRVVVKFFVDGKDALLDEGFPSRYQMIEAESV — higher, -0.0462
- HMSRYAFEGNVVRLNQKDFDSWKALFTNIDLVSELTRLDIEFTHDKPKNWFSTASAKLNYQNKNAY — within 0.2 log units, -2.51
- HMSRYLLPYAFARTQQVLLEEKSGELTLWMHSGSNLGGISEVTRKYAVQHVTHEPMDALLNRISSAYAN — lower, -3.34
- HMSSAVKRALAELPENWRMIVYYRVVEGLSYAEIAKVLDIPDGSVMSGLHRGKKMLRGLLLEYAQQEGYD — higher, -1.79
- HMSSDDEAFKRELVGLIPHLRAFARTLTGDPTAADDLAQDAMMKAWDARASYQMGTNMKAWTFMILRNQFY — within 0.2 log units, -2.53
- HMSSDKVWSFEASGKQLQASYVAFENETVYLRASEDGSLLQFPLTDFGMKDQLVVLELYELSAKINRSN — higher, -0.934
- HMSSDLSNVVKIIDTLKHKKGALLPILHQIQREIGYIPLKTIDTIAKKLQQTPAEIHGVISFYHQFRTS — higher, 0.0116
- HMSSEASALRGWLQTSQYQGSVTLFANALNVPLKTVEDWVYGRSKPSLQHWSQLYEATGLPEYQQ — higher, -0.387
- HMSSFRDISGTVYVKASAANLRSEPNTSSLIVDTLYYGASLQRISTNDIWTKVKTGNGQIGFMDNSLFQT — lower, -3.12
- HMSSGTAYATDAVNVRSGPGTSYTVLGYLSRGEKVTITGTVSNGWTQIQLPGNRLGYVSSAYLSASYPS — higher, -0.85
- HMSSHNIALDQDVVVTQLKGKVYLVAADGSQKQLAEGDILPKDAVLITPEGASFKGGNQTFTLS — higher, 0.103
- HMSSIFTRIIAGEIPSYKVAEDENYYAFLDINPLTKGHTLVVPKMEVDYIFDLDDKTLAGMMLFAKKG — higher, -0.129
- HMSSKIKYSEFITMLDKGEVESVVLKSDTLTITLKHGTGVAAQTKTTTLMEDLSELTKRLEKAGIKDFDK — higher, -1.38
- HMSSLDTLTARETQILAEMAQGKNNAAIAAAVSVSERAVEKHTNSIFAKLGLSEEKDVNRRVMAVLLFLGR — lower, -3.6
- HMSSLEQVYPNPVSSILKLNSFIKNYKILNATGHEVLKGSGNTINVGKLPSGSYFLITSENYSIKFIK — higher, -1.08
- HMSSLSGVRRTLLDSLGMPPDASDEELADRREELRGSLDTAPQARRKWIEQQLARIDAITALDASG — higher, 0.106
- HMSSPEAAEVQRLLKDGQHVQALKIIDESLARNPKDPQMRFRRGVALSMLDRKNEALAVFQKLVED — higher, -0.182
- HMSSPRAIYSAIQKAVGEDMILYREDVQIILDKLDADLLVDDILEKMELDGTLVRQRDGTWLLL — higher, -0.801
- HMSSQVFLGQKNSIAKYDLNENKPIWTKEIKGTPLILSTWKDMLLIQIQTWVSYTHMLVKQENGQTVWE — higher, 0.288
- HMSSRLEIEITSKIDDLSHTWRAVGAKQPKGNIKSSLLPSGVKVGETFRVEADFLLDGIEIVSVLPP — higher, -1.86
- HMSSSLDQLTVREREILAQVSRGLSNKAIARELGISHDTVKLHVRHILSKLGFSSRVEAAVFAIEHRIG — within 0.2 log units, -2.35
- HMSSSMDAIAEIIRSIPRGDHLTAPEVYELAKQRGLKLSLSTVYRTLNKLKVVGDVITVSGDRGLRYESV — higher, -0.336
- HMSSTPEPPQAVLDLVNLREQARAGKDWTQSDAFRQQIAALGWTVKDTKDGPVVSLSPTTTE — higher, 0.392
- HMSSTSTMTVAEATIGRKVKHDKFGEGTIITVADVNGDKKLTIAFNQQGVKMLMLSMAKLEL — lower, -3.36
- HMSSVEVWINGKSSGLTSDNRAQILQQLPAESIERIEVIDNPSAKFSAEGSAGIINIVLKKD — higher, 0.195
- HMSSVRDNGDLELVPGDRIRHDDYGEGRVTAVTGVGSKRIAHAVFDSVGERKLLIKLSPIEKI — higher, -0.0574
- HMSSWMTKDGKIKPISKWAGVPMTSQQQADYAAGKVVELTNIPDKQGQLNTVYLKFNPEKQRPTTSLNDPR — higher, -0.00849
- HMSSYETVTLNGQRYFKYKVKSGEGLYAISRMFSTPIAEIIRHNPSSNAGLKNGQELLIPVN — higher, -0.356
- HMSSYMQMQLERLESLLQKNDLTDSDKYDIRQLVEDLDKVPESVSPNLVGAYMTIKNRYASVLKTVL — higher, 0.0189
- HMSTANISIEQAKEIALNHANLTSNQVIFSRTELDYDNGIQKYEVEFYYNNREYSYEINANTGDILGYEQ — higher, -0.722
- HMSTANIVVPDVKGKTFEEAKKAIEAEGLTAKAEGDESGVVQKTSPSYGVSVESGSEVTLTLVKSDD — higher, 0.494
- HMSTDNINYKNILIASLLIHAAKIDENYTENEKNIIKKALIELDEIDSKKADEIMILAEKKE — higher, -0.265
- HMSTGYEMVREVANQGSFSKAANSLGVSGPAVSKQVKSLEERLGLVLFHRTTRAVSLTQAGRQLVDVLN — higher, 0.114
- HMSTIKEKIIQYLDFKGISKYDFYQKTGVSNGVLSQKSGMSEDNIMRFLSYYDDINTDWLFYGKGEMIKT — higher, -2.06
- HMSTKLLEVNIFDDSKWVNKTIMDSDIPEDILIVMIKRGDEVIVPKGSTIINKGDILVLSANNFDNLLN — within 0.2 log units, -2.45
